Laboratory results from PMC11490884 (The Journal of Biological Chemistry, 2024).

T1: ASAP1 SH3 domain (aa. 1083–1147) (mouse, UniProt Q9QWY8 1083-1147)
T1 sequence (looked up): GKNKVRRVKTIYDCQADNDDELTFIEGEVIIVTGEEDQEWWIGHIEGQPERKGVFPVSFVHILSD


Target: T1, ASAP1 SH3 domain (aa. 1083–1147)
Experiment: ITC

Binder | Kd | fold weakening of the interaction against the wild-type gAnkB peptide | other results
GIKKPVRRKLKE (peptide, UniProt Q01484 1699-1710, looked up) [12-residue peptide derived from gAnkB (aa. 1699–1710)] | ~190 nM |  | 
GIKKGVRRKLKE (peptide, UniProt Q01484 1699-1710, looked up) [gAnkB peptide P1703G] |  |  | fold decrease of the binding affinity against the wild-type gAnkB peptide: ~3 fold
GIKKPVERKLKE (peptide, UniProt Q01484 1699-1710, looked up) [gAnkB peptide R1705E] |  | ~105 fold | 
GIKEPVRRKLKE (peptide, UniProt Q01484 1699-1710, looked up) [gAnkB peptide K1702E] |  | ~264 fold | 
IPPDETQSTQKQHKPSLGIKKPVRRKLKEKQKQKEEGLQASAEKAELKKG (domain or fragment, human, UniProt Q01484 1682-1731, looked up) [gAnkB (aa. 1682–1731)] | ~140 nM |  | 
